Test results reported in PMC11535393, “Combining systems and synthetic biology for in vivo enzymology” (The EMBO Journal, 2024).

Assays:
PaCrtI = target: T1, PaCrtI (Pantoea ananatis, UniProt P21685); test: in vivo lycopene flux vs intracellular phytoene in yeast strains, Michaelis-Menten fit; type: cell-based; conditions: read-out: K1/2cell; in living S. cerevisiae, exponential growth, 28 °C, medium pH 5.0; TDH3p expression; total intracellular substrate concentration; lower limit only, no saturation
T1 construct: gene crtI; full-length, yeast codon-optimized synthetic gene, expressed in Saccharomyces cerevisiae under TDH3p; V5 tag (CrtI-V5 in western blot)

[1] = test system: CC(C)=CCC/C(C)=C/CC/C(C)=C/CC/C(C)=C/COP(=O)(O)OP(=O)(O)O; test: cells, lysate or membranes; conditions: in living S. cerevisiae, exponential growth, 28 °C, medium pH 5.0, PGI1p expression, total intracellular substrate concentration, partial saturation
[2] = substrate: CC(C)=CCC/C(C)=C/CC/C(C)=C/CC/C(C)=C/C=C\C=C(/C)CC/C=C(\C)CC/C=C(\C)CCC=C(C)C; test: in vivo lycopene flux vs intracellular phytoene in yeast strains, Michaelis-Menten fit; type: cell-based, Phaffia rhodozyma; conditions: in living S. cerevisiae, exponential growth, 28 °C, medium pH 5.0, PGK1p expression, total intracellular substrate concentration
[3] = substrate: CC(C)=CCC/C(C)=C/CC/C(C)=C/CC/C(C)=C/C=C\C=C(/C)CC/C=C(\C)CC/C=C(\C)CCC=C(C)C; test: as above; type: cell-based, Blakeslea trispora; conditions: in living S. cerevisiae, exponential growth, 28 °C, medium pH 5.0, PGI1p expression, total intracellular substrate concentration, enzyme level slightly higher in low-phytoene strains

T1 sequence (P21685 whole entry): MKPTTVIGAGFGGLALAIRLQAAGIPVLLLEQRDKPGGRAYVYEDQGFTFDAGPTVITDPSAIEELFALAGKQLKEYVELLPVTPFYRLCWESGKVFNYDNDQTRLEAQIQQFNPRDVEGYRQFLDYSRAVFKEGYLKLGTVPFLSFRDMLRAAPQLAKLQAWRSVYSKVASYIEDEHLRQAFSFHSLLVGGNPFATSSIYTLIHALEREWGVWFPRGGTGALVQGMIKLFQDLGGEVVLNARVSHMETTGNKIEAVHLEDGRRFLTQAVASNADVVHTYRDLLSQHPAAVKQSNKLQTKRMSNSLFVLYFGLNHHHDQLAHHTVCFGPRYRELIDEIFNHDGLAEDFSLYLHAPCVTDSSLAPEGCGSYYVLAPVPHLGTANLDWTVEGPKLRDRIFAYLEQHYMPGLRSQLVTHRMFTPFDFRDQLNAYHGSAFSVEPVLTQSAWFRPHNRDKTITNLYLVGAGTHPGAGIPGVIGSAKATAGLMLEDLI

Molecule: CC(C)=CCC/C(C)=C/CC/C(C)=C/CC/C(C)=C/C=C\C=C(/C)CC/C=C(\C)CC/C=C(\C)CCC=C(C)C [phytoene]
- Km (PaCrtI): > 560 µM

Molecule: PaCrtB (Pantoea ananatis)
- K0.5 [1]: 19 ± 3 µM
- kcat [1]: 6 ± 1 s⁻¹

B1: XdCrtI (Phaffia rhodozyma) (protein)
chain: MGKEKDQDKPTAIIVGCGIGGIATAARLAKEGFQVTVFEKNDYSGGRCSLIERDGYRFDQGPSLLLLPDLFKQTFEDLGEKMEDWVDLIKCEPNYVCHFHDEETFTLSTDMALLKREVERFEGKDGFDRFLSFIQEAHRHYELAVVHVLQKNFPGFAAFLRLQFIGQILALHPFESIWTRVCRYFKTDRLRRVFSFAVMYMGQSPYSAPGTYSLLQYTELTEGIWYPRGGFWQVPNTLLQIVKRNNPSAKFNFNAPVSQVLLSPAKDRATGVRLESGEEHHADVVIVNADLVYASEHLIPDDARNKIGQLGEVKRSWWADLVGGKKLKGSCSSLSFYWSMDRIVDGLGGHNIFLAEDFKGSFDTIFEELGLPADPSFYVNVPSRIDPSAAPEGKDAIVILVPCGHIDASNPQDYNKLVARARKFVIQTLSAKLGLPDFEKMIVAEKVHDAPSWEKEFNLKDGSILGLAHNFMQVLGFRPSTRHPKYDKLFFVGASTHPGTGVPIVLAGAKLTANQVLESFDRSPAPDPNMSLSVPYGKPLKSNGTGIDSQVQLKFMDLERWVYLLVLLIGAVIARSVGVLAF
notes: full-length, gene amplified from a plasmid, expressed in Saccharomyces cerevisiae under PGK1p; V5 tag (CrtI-V5 in western blot)
- K0.5 [2]: 380 ± 49 µM
- kcat [2]: 0.030 ± 0.006 s⁻¹

B2: BtCrtI (Blakeslea trispora) (protein)
chain: MSDQKKHIVVIGAGIGGTATAARLAREGFRVTVVEKNDFSGGRCSFIHHDGHRFDQGPSLYLMPKLFEDAFADLDERIGDHLDLLRCDNNYKVHFDDGDAVQLSSDLTKMKGELDRIEGPLGFGRFLDFMKETHVHYEQGTFIAIKRNFETIWDLIRLQYVPEIFRLHLFGKIYDRASKYFQTKKMRMAFTFQTMYMGMSPYDAPAVYSLLQYTEFAEGIWYPRGGFNMVVQKLESIASKKYGAEFRYQSPVAKINTVDKDKRVTGVTLESGEVIEADAVVCNADLVYAYHHLLPPCNWTKKTLASKKLTSSSISFYWSMSTKVPQLDVHNIFLAEAYKESFDEIFNDFGLPSEASFYVNVPSRIDESAAPPNKDSIIVLVPIGHMKSKTGNSAEENYPELVNRARKMVLEVIERRLGVNNFANLIEHEEVNDPSVWQSKFNLWRGSILGLSHDVFQVLWFRPSTKDSTNRYDNLFFVGASTHPGTGVPIVLAGSKLTSDQVCKSFGQNPLPRKLQDSQKKYAPEQTSKTESHWIYYCLACYFVTFLFFYFFPRDDTTTPASFINQLLPNVFQVQNSNDIRI
notes: full-length, yeast codon-optimized synthetic gene, expressed in Saccharomyces cerevisiae under PGI1p; V5 tag (CrtI-V5 in western blot)
- K0.5 [3]: 41 ± 12 µM
